Data taken from patent US20140017242A1, “ANTI-BRADYKININ B2 RECEPTOR (BKB2R) MONOCLONAL ANTIBODY” (Diamedica, Inc., priority 2010, published 2014).

Tests used:
MV-4-11 = experiment: MTT Cell Proliferation Assay, MV-4-11; type: cell-based, human; settings: 120 hours of exposure
From the text: This Example describes characterization of the cytotoxic activity of herein described anti-BKB2R monoclonal antibodies against a panel of cancer cell lines. BxPC-3 is a human adenocarcinoma cell line originally isolated from the pancreas (pancreatic cancer) (ATCC # CRL-1687; Tan et al., Cancer Invest. 4: 15-23, 1986. PubMed: 3754176). MV-4-11 is a human biphenotypic B myelomonocytic leukemia (mixed-lineage leukemia, MLL-AF4) cell line originally isolated from the peripheral blood (ATCC # CRL-959; Lange et al., Blood 70: 192-199, 1987. PubMed: 3496132). Hep G2 is a human hepatocellular carcinoma cell line isolated from the liver (liver cancer) (ATCC # HB-8065; Aden et al., Nature 282: 615-616, 1979. PubMed: 233137). RS4;11 is a human acute lymphoblastic leukemia (mixed-lineage leukemia, MLL-AF4) cell line isolated from the bone marrow (ATTC # CRL-1873) Stong et al., Blood 65: 21-31, 1985. PubMed: 3917311). HT-29 is a human colorectal adenocarcinoma (ATTC # HTB-38) cell line isolated from the colon (colon cancer). Fogh et al., J. Natl. Cancer Inst. 58: 209-214, 1977. PubMed: 833871). NUGC-4 is a human stomach carcinoma isolated from the stomach paragastiric lymph node (JCRB # JCRB0834; Akiyama et al., Jpn. J. Surg., 18: 438-446, 1988). […]
The anti-proliferative activity of test compounds against the indicated cell lines was evaluated in vitro using the ATCC's MTT Cell Proliferation Assay (Catalog No. 30-1010K). After the 120 hour incubation with drug (e.g., anti-BKB2R mAb or cisplatin), cell proliferation was measured by addition of MTT reagent to each well and incubation for an additional 4 hrs. […] Optical absorbance (570 nm) of the test wells was measured and then quantitated relative to control wells that received no drug. Results were expressed as percent inhibition versus compound concentration and graphed, as shown in FIGS. 19-25, for cell lines BxPC-3, MV-4;11, HepG2, RS-4;11, HT-29, NUGC-4, and PC-3, respectively.

ZDF fa/fa rats = experiment: 21-day ZDF fa/fa study: hyperinsulinemic-euglycemic clamp in sub-groups; type: in vivo, rat; settings: after 21 days
Description: Animals. Male ZDF fa/fa rats were obtained from CRL (Kingston, N.Y.). Upon arrival, rats were seven weeks of age. The rats were housed individually per cage in a room with a photo cycle of 12 hours of light and 12 hours of dark and an ambient temperature of 70-72° F. and fed on regular rodent diet and water ad libitum. At the age of eleven weeks, rats were divided into six groups (Table 5) of eight rats per group based on fasting blood glucose levels. A sub-group of four rats per group was maintained in parallel to the main groups and was dosed similarly for twenty-one days for a hyperinsulinemic-euglycemic clamp study.
The test compounds 5F12G1 and MG2b-57 were administered subcutaneously once every three days.

B1: 5F12G1: murine monoclonal anti-BKB2R antibody (IgG2b,κ), VH comprising SEQ ID NO:1, VL comprising SEQ ID NO:2 (antibody, listed as Mus musculus, V domains shown)
VH: EVKLEESGGGLVQPGGSMKLSCVVSGFTFSDYWMSWVRHSPEMGLEWVAEIRLKSDNYATHYAESVKGRFTISRDDSKSRLYLQINSLRGEDTGIYYCTRDYYAMEYWGQGTSVTVSS
VL: DVVMTQTPLSLPVSLGDQASISCRSSQTIVHSNGKTYLEWYLQKPGQSPKLLIYKVSNRFSGVPDRFSGSGSGTEFTLKISRVETEDLGVYYCFQASHVPYTFGGGTKLEIK
With B1 the “EC 50 Values (ng/ml) MV-4-11” value (MV-4-11) was 35000 ng/mL, the “AUC-GIR (glucose infusion rate) in the clamp” value (ZDF fa/fa rats; 0.04 mg/kg s.c. every 3 days) was “significantly higher AUC-GIR” and the “AUC-GIR (glucose infusion rate) in the clamp” value (ZDF fa/fa rats; 0.2 mg/kg s.c. every 3 days) was “significantly higher AUC-GIR”.
